From patent US20040102611

T1: DBF4 (human DBF4/ASK1), Q9UBU7
T1 chain: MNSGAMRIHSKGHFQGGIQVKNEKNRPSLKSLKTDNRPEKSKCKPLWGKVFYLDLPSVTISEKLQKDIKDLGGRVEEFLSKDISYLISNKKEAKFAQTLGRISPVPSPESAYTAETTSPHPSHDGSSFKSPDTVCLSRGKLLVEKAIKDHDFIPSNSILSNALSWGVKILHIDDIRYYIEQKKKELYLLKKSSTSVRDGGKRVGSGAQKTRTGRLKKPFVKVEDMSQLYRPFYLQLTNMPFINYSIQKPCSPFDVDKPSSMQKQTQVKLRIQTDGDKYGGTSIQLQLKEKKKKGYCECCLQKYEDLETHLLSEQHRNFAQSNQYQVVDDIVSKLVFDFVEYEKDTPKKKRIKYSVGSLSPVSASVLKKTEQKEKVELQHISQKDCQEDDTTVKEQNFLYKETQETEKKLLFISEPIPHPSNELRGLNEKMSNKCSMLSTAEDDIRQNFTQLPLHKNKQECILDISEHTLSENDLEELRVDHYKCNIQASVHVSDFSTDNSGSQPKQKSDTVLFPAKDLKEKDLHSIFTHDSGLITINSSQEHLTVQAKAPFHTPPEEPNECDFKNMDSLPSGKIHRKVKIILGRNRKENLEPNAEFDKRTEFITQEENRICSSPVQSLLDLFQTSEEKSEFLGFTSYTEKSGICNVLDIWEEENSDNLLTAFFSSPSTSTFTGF

T2: HA-DRF1 (DRF1 with N-terminal HA epitope, expressed from pCDNAHAdrf1)
T2 chain: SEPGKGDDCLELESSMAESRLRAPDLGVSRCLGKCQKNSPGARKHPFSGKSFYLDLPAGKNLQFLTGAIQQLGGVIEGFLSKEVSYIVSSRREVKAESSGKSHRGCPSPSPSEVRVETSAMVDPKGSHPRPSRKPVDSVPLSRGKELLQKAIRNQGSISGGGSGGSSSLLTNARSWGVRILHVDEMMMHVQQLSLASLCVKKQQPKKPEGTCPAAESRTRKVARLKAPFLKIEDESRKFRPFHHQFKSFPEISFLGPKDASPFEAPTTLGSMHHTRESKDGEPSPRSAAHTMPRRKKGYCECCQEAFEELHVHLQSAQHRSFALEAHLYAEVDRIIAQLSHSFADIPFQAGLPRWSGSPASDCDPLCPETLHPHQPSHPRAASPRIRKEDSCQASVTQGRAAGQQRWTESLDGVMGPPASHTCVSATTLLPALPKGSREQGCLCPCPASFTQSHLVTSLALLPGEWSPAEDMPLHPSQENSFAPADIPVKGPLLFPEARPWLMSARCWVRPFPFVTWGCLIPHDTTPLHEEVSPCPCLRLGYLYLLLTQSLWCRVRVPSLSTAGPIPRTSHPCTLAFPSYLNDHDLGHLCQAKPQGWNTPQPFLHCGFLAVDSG


Tests used:
[1] = target: T1, DBF4 (human DBF4/ASK1), Q9UBU7
[2] = target: T2, HA-DRF1 (DRF1 with N-terminal HA …)

Protein | phosphorylation of MCM2 (1-285) by immunoprecipitated complexes (32P kinase assay, autoradiography) [1] | phosphorylation of DRF1 (32P, FIG. 3 panel A) [2] | phosphorylation of MCM2 (1-285) by immunoprecipitated complexes (32P kinase assay, autoradiography) [2] | phosphorylation of MCM2 by CDC7 [2]
FLAG-tagged human CDC7 kinase, wild type (pCdc7FLAG-tagged, in pCMV-Tag2) (protein) MEASLGIQMDEPMAFSPQRDRFQAEGSLKKNEQNFKLAGVKKDIEKLYEAVPQLSNVFKIEDKIGEGTFSSVYLATAQLQVGPEEKIALKHLIPTSHPIRIAAELQCLTVAGGQDNVMGVKYCFRKNDHVVIAMPYLEHESFLDILNSLSFQEVREYMLNLFKALKRIHQFGIVHRDVKPSNFLYNRRLKKYALVDFGLAQGTHDTKIELLKFVQSEAQQERCSQNKSHIITGNKIPLSGPVPKELDQQSTTKASVKRPYTNAQIQIKQGKDGKEGSVGLSVQRSVFGERNFNIHSSISHESPAVKLMKQSKTVDVLSRKLATKKKAISTKVMNSAVMRKTASSCPASLTCDCYATDKVCSICLSRRQQVAPRAGTPGFRAPEVLTKCPNQTTAIDMWSAGVIFLSLLSGRYPFYKASDDLTALAQIMTIRGSRETIQAAKTFGKSILCSKEVPAQDLRKLCERLRGMDSSTPKLTSDIQGHASHQPAISEKTDHKASCLVQTPPGQYSGNSFKKGDSNSCEHCFDEYNTNLEGWNEVPDEAYDLLDKLLDLNPASRITAEEALLHPFFKDMSL | DRF1 is a regulatory subunit of CDC7 able to induce its kinase activity in a way comparable to DBF4 (lane 5) | DRF1, as DBF4, was detected as a phosphoprotein when expressed with wild type CDC7 but not with the kinase negative | In the presence of HA-DRF1 and wild-type CDC7, efficient phosphorylation of MCM2 (1-285) (above the background shown in lane 4, panel B) was observed | in the presence of DRF1, CDC7 is able to phosphorylate its physiological substrates MCM2
FLAG-tagged human CDC7 kinase, kinase negative form K90R (pCdc7FLAG K90R) (protein) MEASLGIQMDEPMAFSPQRDRFQAEGSLKKNEQNFKLAGVKKDIEKLYEAVPQLSNVFKIEDKIGEGTFSSVYLATAQLQVGPEEKIALRHLIPTSHPIRIAAELQCLTVAGGQDNVMGVKYCFRKNDHVVIAMPYLEHESFLDILNSLSFQEVREYMLNLFKALKRIHQFGIVHRDVKPSNFLYNRRLKKYALVDFGLAQGTHDTKIELLKFVQSEAQQERCSQNKSHIITGNKIPLSGPVPKELDQQSTTKASVKRPYTNAQIQIKQGKDGKEGSVGLSVQRSVFGERNFNIHSSISHESPAVKLMKQSKTVDVLSRKLATKKKAISTKVMNSAVMRKTASSCPASLTCDCYATDKVCSICLSRRQQVAPRAGTPGFRAPEVLTKCPNQTTAIDMWSAGVIFLSLLSGRYPFYKASDDLTALAQIMTIRGSRETIQAAKTFGKSILCSKEVPAQDLRKLCERLRGMDSSTPKLTSDIQGHASHQPAISEKTDHKASCLVQTPPGQYSGNSFKKGDSNSCEHCFDEYNTNLEGWNEVPDEAYDLLDKLLDLNPASRITAEEALLHPFFKDMSL | – | – | it can be abolished by overexpression of the mutant K90R (lanes 1 and 6) | –
